Measurements as given in paper PMC6399350, “Heterologous calcium-dependent inactivation of Orai1 by neighboring TRPV1 channels modulates cell migration and wound healing” (Communications Biology, 2019).
Blank lines part the entries; values can stand above or below the binder they belong to. No end group written: not given here.

Key:
[1] = biological target: T1, Orai1-COOH-DsRed (carboxyl terminus of Orai1 fused to the red fluorescent protein) (human); test: peptide or protein array; TIRFM microarray; Orai1-COOH-DsRed printed on poly-D-lysine coated glass as bait, ANK domains fused to GFP in solution at 1 uM, 3 min incubation, wash with saline, GFP fluorescence read; settings: both partners purified
T1 construct: also called Orai1-dsRED-COOH peptide; source: spotted on the microarray slide; not shown: DsRed, C-terminal, kept
T1 chain: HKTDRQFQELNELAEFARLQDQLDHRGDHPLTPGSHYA

[2] = biological target: T2, ANK1 domain printed on the microarray slide as bait (rat); test: peptide or protein array; TIRFM microarray; ANK1 domain printed on poly-D-lysine coated glass as bait, Orai1 terminus fused to GFP in solution, GFP fluorescence read; settings: both partners purified
T2 construct: ankyrin domain 1 of rat TRPV1, 110-152; The methods say 'the ANK1 domain (see above)', which points to the ANK1-GFP fusion; Kept apart from m6 for that reason; source: purified peptide, printed on glass microarray slides coated with poly-D-lysine
T2 chain: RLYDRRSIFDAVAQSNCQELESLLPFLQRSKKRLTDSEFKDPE

binding result [1]: binds
B1: ANK3-GFP (third ankyrin domain of rat TRPV1 fused to GFP) (domain or fragment)
chain: KGQTALHIAIERRNMTLVTLLVENGADVQAAANGDFFKKTKGRPGFY
notes: ankyrin domain 3 of rat TRPV1, 200-246; source: HEK293, transfected, in lysate (co-IP); HEK293 in suspension, sonicated, immunoprecipitated with anti-GFP antibody (microarray); not shown: enhanced GFP, C-terminal, kept

binding result [2]: binds
B2: Orai1-COOH-GFP (carboxyl terminus of Orai1 fused to GFP) (domain or fragment, human)
chain: T1 chain
modifications: also: fused to GFP
notes: source: HEK293 in suspension, sonicated, immunoprecipitated with anti-GFP antibody (procedure as for the ANK-GFP fusions); not shown: GFP, C-terminal, kept

binding result [1]: binds
B3: ANK1-GFP (first ankyrin domain of rat TRPV1 fused to GFP) (domain or fragment)
chain: T2 chain
notes: ankyrin domain 1 of rat TRPV1, 110-152; source: HEK293, transfected, in lysate (co-IP); HEK293 in suspension, sonicated, immunoprecipitated with anti-GFP antibody (microarray); not shown: enhanced GFP, C-terminal, kept

binding result [1]: binds
B4: ANK2-GFP (second ankyrin domain of rat TRPV1 fused to GFP) (domain or fragment)
chain: TGKTCLLKAMLNLHNGQNDTIALLLDVARKTDSLKQFVNASYTDSYY
notes: ankyrin domain 2 of rat TRPV1, 153-199; source: HEK293, transfected, in lysate (co-IP); HEK293 in suspension, sonicated, immunoprecipitated with anti-GFP antibody (microarray); not shown: enhanced GFP, C-terminal, kept

binding result [1]: binds
B5: ANK4-GFP (fourth ankyrin domain of rat TRPV1 fused to GFP) (domain or fragment)
chain: FGELPLSLAACTNQLAIVKFLLQNSWQPADISARDS
notes: ankyrin domain 4 of rat TRPV1, 247-282; source: HEK293 in suspension, sonicated, immunoprecipitated with anti-GFP antibody (microarray); not shown: enhanced GFP, C-terminal, kept
